Assay [1] concerns the target Ste2p R58L, S95Y (Saccharomyces cerevisiae) (UniProt D6VTK4). The assay can be described thus: flow cytometry on cells. (In general: Flow cytometry measures light scatter and fluorescence of single cells or particles in a stream.)
The target in assay [2] is Ste2p R58Q, S95Y (Saccharomyces cerevisiae) (UniProt D6VTK4). The assay can be described thus: flow cytometry on cells.

We go through one substance from PMC4405178 (Biochemistry, 2015).

Chain of Ste2p R58Q, S95Y (Saccharomyces cerevisiae) (D6VTK4 1-303 R58Q/S95Y): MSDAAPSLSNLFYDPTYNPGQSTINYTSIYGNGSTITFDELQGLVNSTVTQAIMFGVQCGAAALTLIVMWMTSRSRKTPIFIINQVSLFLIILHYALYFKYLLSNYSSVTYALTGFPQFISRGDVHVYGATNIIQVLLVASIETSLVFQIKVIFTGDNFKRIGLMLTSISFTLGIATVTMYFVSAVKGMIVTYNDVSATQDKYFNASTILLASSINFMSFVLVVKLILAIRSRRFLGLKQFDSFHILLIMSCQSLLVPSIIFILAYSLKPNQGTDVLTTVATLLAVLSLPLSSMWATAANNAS
Chain of Ste2p R58L, S95Y (Saccharomyces cerevisiae) (D6VTK4 1-303 R58L/S95Y): as the sequence (D6VTK4 1-303 R58Q/S95Y) above, with Q58L counted along it

Turning to [K^7(NBD),Nle^12] α-factor (peptide), the ligand binding at 300 nM ligand, % of wild-type levels (% of wild-type levels) in assay [1] was found to be 13.7; in assay [2], 16.8.
